Data published in PMC5324060, “Evolutionary, computational, and biochemical studies of the salicylaldehyde dehydrogenases in the naphthalene degradation pathway” (Scientific Reports, 2017).

Tests used:
[1] = target: the molecule itself; assay: SEC; purified SALDan on a Superdex 200 10/300 GL column, against standards ferritin, catalase, alcohol dehydrogenase, albumin, ovalbumin; one peak at approximately 160 kDa (monomer approximately 53 kDa)
[2] = substrate: O=Cc1cccc(Cl)c1; assay: purified protein, by the assay type; details: other: wild-type; aldehyde varied at NAD^+ 100 μM, enzyme 0.1 μM; for NAD^+: SAL fixed 50 μM, NAD^+ 0–500 μM; 45.0 °C
[3] = substrate: O=Cc1ccc([N+](=O)[O-])cc1; assay: purified protein, by the assay type; details: other: wild-type; aldehyde varied at NAD^+ 100 μM, enzyme 0.1 μM; for NAD^+: SAL fixed 50 μM, NAD^+ 0–500 μM; 45.0 °C
[4] = substrate: O=Cc1ccc(Cl)cc1; assay: purified protein, by the assay type; details: other: wild-type; aldehyde varied at NAD^+ 100 μM, enzyme 0.1 μM; for NAD^+: SAL fixed 50 μM, NAD^+ 0–500 μM; 45.0 °C
[5] = target: the molecule itself; assay: cross-linking; purified SALDan (0.5 mg/ml) with 0.1% aldehyde for various periods at 25 °C, quenched with 1 M Tris-HCl, SDS-PAGE and Coomassie staining
[6] = substrate: NC(=O)c1ccc[n+]([C@@H]2O[C@H](COP(=O)([O-])OP(=O)(O)OC[C@H]3O[C@@H](n4cnc5c(N)ncnc54)[C@H](O)[C@@H]3O)[C@@H](O)[C@H]2O)c1; assay: Kinetics assay of wild-type recombinant SALDan (NADH appearance at 340 nm); assay type: biochemical, Alteromonas naphthalenivorans; details: other: wild-type; aldehyde varied at NAD^+ 100 μM, enzyme 0.1 μM; for NAD^+: SAL fixed 50 μM, NAD^+ 0–500 μM; 45.0 °C
[7] = substrate: O=Cc1ccc2ccccc2c1; assay: as above; assay type: biochemical, Alteromonas naphthalenivorans; details: other: wild-type; aldehyde varied at NAD^+ 100 μM, enzyme 0.1 μM; for NAD^+: SAL fixed 50 μM, NAD^+ 0–500 μM; 45.0 °C
[8] = substrate: O=Cc1ccccc1O; assay: as above; assay type: biochemical, Alteromonas naphthalenivorans; details: other: wild-type; aldehyde varied at NAD^+ 100 μM, enzyme 0.1 μM; for NAD^+: SAL fixed 50 μM, NAD^+ 0–500 μM; 45.0 °C
[9] = substrate: O=Cc1ccccc1Cl; assay: as above; assay type: biochemical, Alteromonas naphthalenivorans; details: other: wild-type; aldehyde varied at NAD^+ 100 μM, enzyme 0.1 μM; for NAD^+: SAL fixed 50 μM, NAD^+ 0–500 μM; 45.0 °C
[10] = substrate: O=CCCCC=O; assay: as above; assay type: biochemical, Alteromonas naphthalenivorans; details: other: wild-type; aldehyde varied at NAD^+ 100 μM, enzyme 0.1 μM; for NAD^+: SAL fixed 50 μM, NAD^+ 0–500 μM; 45.0 °C

B1: Salicylaldehyde dehydrogenase from Alteromonas naphthalenivorans (SALDan) (enzyme, UniProt F5Z5S7 1-483, looked up)
chain: MKTQLIINNKFVDSESTNTFERYNQTLGEVVTSAAAASVADANNAAEVAQEAFKSWSKTGPTERRNVLLKAADILESKTAEFIDVMAKEVGSSGLWAGFNVMLAANVFREAASLATQIQGETIPTDKPGTLSMTIREPVGVILSIAPWNGPIVLAARAIAYPIVCGNSVVFKASEVSPKTHSLVVEAVIEAGLPAGVLNLLSNKPEDGESIVNALIEHKAVRRINFTGSTHVGRIIAQKAGYHLKRCLLELGGKSPQVILDDANLKEAAKAATFGSFLYQGQICMTTGRIIVDESVADEFGEIFAKLASKLPVGNPCDNNDCIVGPVVTQSSAERLNGYIDDALSKGAKLITGGKANGTVMKPTILDHVTSDMEIYHEESFGPLICMVRVKNADEALHTANDTPYGLSAAVFGKDVNRALQMAKDINAGHCHVNGTTVQNDAQAPYGGTKDSGWGRFDGRAVIDEFTELKWITIEPIVQDYPF
notes: Salicylaldehyde dehydrogenase (EC 1.2.1.65) of Alteromonas naphthalenivorans, UniProt F5Z5S7; amplified from genomic DNA with primers from the ATG start codon to the stop codon; about 53 kDa on SDS-PAGE; Cloned between BamHI and HindIII of pET28a; also called SAL dehydrogenase; WT; source: E. coli BL21 (DE3), pET28a, purified (Ni-NTA column)
stoichiometry N [1]: 3 subunits
Km [2]: 4.8 ± 0.7 µM
Vmax [2]: 56.8 µmol/min/mg
kcat [2]: 142 s⁻¹
kcat/Km [2]: 2.96e+07 M⁻¹ s⁻¹
Km [3]: 6.5 ± 0.9 µM
Vmax [3]: 32.3 µmol/min/mg
kcat [3]: 80.2 s⁻¹
kcat/Km [3]: 1.23e+07 M⁻¹ s⁻¹
Km [4]: 5.5 ± 1.1 µM
Vmax [4]: 74.2 µmol/min/mg
kcat [4]: 186 s⁻¹
kcat/Km [4]: 3.37e+07 M⁻¹ s⁻¹
stoichiometry N [5]: 3
Km [6]: 39.5 ± 3.2 µM
Vmax [6]: 94.1 µmol/min/mg
kcat [6]: 234 ± 24.2 s⁻¹
kcat/Km [6]: 5.9e+06 ± 500000 M⁻¹ s⁻¹
Km [7]: 3.4 ± 0.5 µM
Vmax [7]: 61.4 µmol/min/mg
kcat [7]: 153 ± 14.4 s⁻¹
kcat/Km [7]: 4.5e+07 ± 4.4e+06 M⁻¹ s⁻¹
Km [8]: 3.8 ± 0.5 µM
Vmax [8]: 49.5 µmol/min/mg
kcat [8]: 124 ± 13.6 s⁻¹
kcat/Km [8]: 3.25e+07 ± 4.2e+06 M⁻¹ s⁻¹
Km [9]: 3.2 ± 0.3 µM
Vmax [9]: 45.6 µmol/min/mg
kcat [9]: 114 ± 17.2 s⁻¹
kcat/Km [9]: 3.57e+07 ± 4.5e+06 M⁻¹ s⁻¹
Km [10]: 560 ± 46.0 µM
Vmax [10]: 11.6 µmol/min/mg
kcat [10]: 29.6 ± 3.7 s⁻¹
kcat/Km [10]: 53000 M⁻¹ s⁻¹
